Data reported in patent publication US7465453B2, “Polypeptide fragments of CKLF1” (Peking University, priority 2004, dated 2008).
Entries after “also recorded” stand apart in the source; their conditions may differ.

Tests used:
Format in all cases: cell-based
CCR5 = molecular target: T1, CCR5 (Homo sapiens, UniProt P51681); experiment: Chemotaxis assay (48-well microchemotaxis chamber) of HEK293 cells transfected with CCR5; details: for chemotaxis induced after PTX pretreatment: CCR5-transfected HEK293 cells treated with 100 ng/ml PTX at 37° C. for 30 min; for desensitization of the receptor to subsequent stimulation with RANTES, C27 or C19 (chemotaxis): HEK293/CCR5, pretreatment 1 mM RANTES or 2 μg/ml C27 or C19, 37° C., 30 min
T1 construct: The cDNA fragments covering the open reading frames for various chemokine receptors were obtained as follows; expressed in transfected cells; host or cells: HEK293 (transient, electroporation)
Experimental: (§1) HEK293 cells were grown in RPMI 1640 supplemented with 10% heat-inactivated FBS, penicillin (100 U/ml) and streptomycin (100 μg/ml). Every 4×10^6 HEK293 cells in 400 μl were transiently transfected by electroporation with 15 μg of the expression plasmid at 120 V, 20 ms using an electric pulse generator (Electro Square Porator ECM 830, BTX, San Diego, Calif.), and calcium mobilization assay and chemotaxis assays were performed 48 hours later.
The chemotaxis assay was performed using a 48-well microchemotaxis chamber (Neutroprobe; Cabin John, Md., U.S.A.). Chemoattractants were diluted in HEPES-buffered RPMI 1640 medium supplemented with 0.1% BSA and placed in the lower wells (28 μl/well). HEK293 cells transfected with pcDI-CCR4, -CCR5 were resuspended in the same medium at 2×10^6 cells/ml and added to the upper wells (50 μl/well), which were separated from the lower wells by a polyvinylpyrrolidone-free polycarbonate filter with 8-μm pores. The chamber was incubated for 2 hours at 37° C. in 5% CO2 and 95% air. Filters were removed from the chamber, washed, fixed, and stained with Three Step Stain Set. Cells that migrated were counted in 5 randomly selected high power fields (400×) per well. The chemotactic index (CI) was calculated from the number of cells that migrated to the control. Significant chemotaxis was defined as CI>2. […]

U937 cells = experiment: Chemotaxis of U937 cells; details: for migration (chemotaxis) of U937 cells: C19, C27, RANTES: U937 cells stimulated by 30 ng/ml IFN-γ
Experimental: The chemotaxis assay was performed using a 48-well microchemotaxis chamber (Neutroprobe, Cabin John, Md., U.S.A.). U937 cells were stimulated by 30 ng/ml IFN-γ for 4 days because IFN-γ could increase the expression of chemokine receptors CCR1, CCR3, and CCR5 in U937 cells. Then part cells were incubated with mouse anti CCR5 100 μg/ml, and/or rat anti CCR3 10 μg/ml for 30 minutes at 37° C., and corresponding mouse IgG and rat IgG as controls. Chemoattractants RANTES, C19 and C27 were diluted in HEPES-buffered RPMI 1640 medium supplemented with 0.5% BSA to indicate concentration, and placed in the lower wells (28 μl/well). U937 cells stimulated by IFN-γ were resuspended in the same medium at 1×10^6 cells/ml and added to the upper wells (50 μl/well), which were separated from the lower wells by a polyvinylpyrrolidone-free polycarbonate filter with 5-μm pores pre-coated by 0.001% fibronectin. The chamber was incubated for 2 hours at 37° C. in 5% CO2 and 95% air. Filters were removed from the chamber, washed, fixed, and stained with Three Step Stain Set. Cells that migrated were counted in 5 randomly selected high power fields (400×) per well. The group with no Chemoattractants in the lower wells was used as a control. All samples were assayed twice at least. The chemotactic index (CI) was calculated from the number of cells that migrated to the control. Significant chemotaxis was defined as CI>2.

CCR4 = molecular target: T2, CCR4 (Homo sapiens, UniProt P51679); experiment: Chemotaxis assay (48-well microchemotaxis chamber) of HEK293 cells transfected with CCR4; details: for chemotaxis induced after PTX pretreatment: CCR4-transfected HEK293 cells treated with 100 ng/ml PTX at 37° C. for 30 min; for desensitization of the receptor to subsequent stimulation with TARC, C27 or C19 (chemotaxis): HEK293/CCR4, pretreatment TARC or 2 μg/ml C27 or C19, 37° C., 30 min
T2 construct: The cDNA fragments covering the open reading frames for various chemokine receptors were obtained as follows; expressed in transfected cells; host or cells: HEK293 (transient, electroporation)
T2 sequence (P51679 1-360): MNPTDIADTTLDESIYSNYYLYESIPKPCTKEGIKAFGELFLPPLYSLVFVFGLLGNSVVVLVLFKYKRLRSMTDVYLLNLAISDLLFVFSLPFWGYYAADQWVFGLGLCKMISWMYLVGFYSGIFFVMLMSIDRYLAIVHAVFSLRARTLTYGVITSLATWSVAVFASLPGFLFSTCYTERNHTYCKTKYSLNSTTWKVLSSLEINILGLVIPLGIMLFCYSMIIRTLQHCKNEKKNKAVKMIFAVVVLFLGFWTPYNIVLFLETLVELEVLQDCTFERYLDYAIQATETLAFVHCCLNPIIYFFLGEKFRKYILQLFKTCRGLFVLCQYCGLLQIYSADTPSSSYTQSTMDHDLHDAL
Experimental: as §1
The chemotaxis assay was performed using a 48-well microchemotaxis chamber (Neutroprobe; Cabin John, Md., U.S.A.). Chemoattractants were diluted in HEPES-buffered RPMI 1640 medium supplemented with 0.1% BSA and placed in the lower wells (28 μl/well). HEK293 cells transfected with pcDI-CCR4, -CCR5 were resuspended in the same medium at 2×10^6 cells/ml and added to the upper wells (50 μl/well), which were separated from the lower wells by a polyvinylpyrrolidone-free polycarbonate filter with 8-μm pores. The chamber was incubated for 2 hours at 37° C. in 5% CO2 and 95% air. Filters were removed from the chamber, washed, fixed, and stained with Three Step Stain Set. Cells that migrated were counted in 5 randomly selected high power fields (400×) per well. The chemotactic index (CI) was calculated from the number of cells that migrated to the control. Significant chemotaxis was defined as CI>2. In some experiments, cells were pretreated with TARC, RANTES, purified CKLF-myc protein or secreted CKLF1 peptides for 30 min. at 37° C., or 100 ng/ml PTX (ALEXIS Biochemicals Corporation) for 6 hours at 37° C. prior to subsequent stimulations.

T1 sequence (P51681 whole entry, the tested form may be a part): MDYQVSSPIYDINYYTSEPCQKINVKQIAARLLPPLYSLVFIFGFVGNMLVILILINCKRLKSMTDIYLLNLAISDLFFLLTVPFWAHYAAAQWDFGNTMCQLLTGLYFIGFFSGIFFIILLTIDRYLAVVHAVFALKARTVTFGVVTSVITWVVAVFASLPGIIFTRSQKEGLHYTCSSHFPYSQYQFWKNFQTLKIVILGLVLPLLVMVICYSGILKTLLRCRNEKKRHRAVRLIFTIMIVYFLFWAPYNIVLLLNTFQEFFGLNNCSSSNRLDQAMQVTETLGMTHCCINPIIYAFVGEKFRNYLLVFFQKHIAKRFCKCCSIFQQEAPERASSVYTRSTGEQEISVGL

Substance	migration (chemotaxis) of transfected cells (CCR5; CCR5-transfected HEK293 cells)	chemotaxis induced after PTX pretreatment (CCR5)	desensitization of the receptor to subsequent stimulation with RANTES, C27 or C19 (chemotaxis) (CCR5)	migration (chemotaxis) of U937 cells (U937 cells)	chemotactic activity after neutralization of chemokine receptors (U937 cells; IFN-γ-stimulated U937 cells, mouse anti CCR5 and/or rat anti CCR3)	migration (chemotaxis) of transfected cells (CCR4; CCR4-transfected HEK293 cells)	chemotaxis induced after PTX pretreatment (CCR4)	desensitization of the receptor to subsequent stimulation with TARC, C27 or C19 (chemotaxis) (CCR4)
ALIYRKL LFNPSGPYQKKPVHEKKEVL (ALIYRKLLFNPSGPYQKKPVHEKKEVL; listed as Homo sapiens) [C27]	could induce migration	completely abolished by PTX	could desensitize the receptor	could induce migration	had no chemotactic activity; also recorded: obviously inhibited	could induce migration	completely abolished by PTX	could desensitize the receptor
FNPSGPYQKKPVHEKKEVL (listed as Homo sapiens) [C19]	–	completely abolished by PTX	could desensitize the receptor	could induce migration	–	–	completely abolished by PTX	could desensitize the receptor
